# Paper PMC6901573 (Scientific Reports, 2019)
# B1: Human beta-semihemoglobin, oxidized (met) form (complex)
# chain 1: not shown
# chain 2: not shown
# B2: Human hemoglobin A, oxidized form (methemoglobin, MetHb) (complex)
# chain 1: not shown
# chain 2: not shown
# B3: Human alpha-semihemoglobin, oxidized (met) form (complex)
# chain 1: not shown
# chain 2: not shown
# Columns and labels:
# [1] = biological target: T1, IsdB (NEAT1 and NEAT2 domains connected by the helical linker), wild type (S. aureus, UniProt Q8NX66 125-485); assay: SPR; details: both partners purified
# [2] = biological target: T1, IsdB (NEAT1 and NEAT2 domains connected …); assay: SPR; details: both partners purified; remark: listed apart in the source
# T1 sequence (Q8NX66 125-485): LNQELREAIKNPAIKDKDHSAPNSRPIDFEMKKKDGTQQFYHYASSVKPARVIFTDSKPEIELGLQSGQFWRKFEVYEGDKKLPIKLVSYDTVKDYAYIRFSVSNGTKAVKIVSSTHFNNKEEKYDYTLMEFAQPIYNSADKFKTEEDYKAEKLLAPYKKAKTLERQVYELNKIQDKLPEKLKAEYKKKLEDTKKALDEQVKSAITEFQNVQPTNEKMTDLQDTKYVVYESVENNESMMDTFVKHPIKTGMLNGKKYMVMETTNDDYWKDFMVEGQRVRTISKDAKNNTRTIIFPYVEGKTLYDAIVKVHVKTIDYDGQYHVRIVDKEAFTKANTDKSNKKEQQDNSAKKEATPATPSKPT
Binder,"KD of the first, reversible step of the two-state irreversible model [1]","KD of the first, reversible step of the two-state irreversible model [2]"
B1,91 ± 5 nM,
B2,70 ± 6 nM,69 ± 1 nM
B3,108 ± 11 nM,
